Experimental findings from patent US20230167174A1 (Novartis, published 2023) are described below.

Experiment [1] has as its target T1, cyTREM2 ECD (19-174)-APP-Avi (cynomolgus).
T1 construct: range 19-174
Put plainly: SPR, label free kinetics. For orientation: In SPR one partner is held on a chip, and binding of the other changes the refractive index at the surface.

For experiment [2], the target named is T2, hTREM2 IgSF-hTREM1 stalk-hFc (human, UniProt Q9NZC2 19-132; Q9NP99 135-205, limits assumed).
T2 construct: domain: IgSF;domain: stalk region; also called hTREM2 IgSF-T1 stalk-hFc-bio; hTREM2 IgSF-hTREM1 stalk-hFc-bio
T2 sequence (looked up): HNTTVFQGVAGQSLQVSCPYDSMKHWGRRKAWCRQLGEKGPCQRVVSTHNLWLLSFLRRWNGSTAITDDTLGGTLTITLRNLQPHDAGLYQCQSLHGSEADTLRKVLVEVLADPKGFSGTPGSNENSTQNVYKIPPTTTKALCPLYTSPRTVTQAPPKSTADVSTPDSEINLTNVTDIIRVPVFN
Put plainly: recombinant protein binding.

The target of experiment [3] is T3, human TREM2 on CHO-hDAP12-hTREM2 cells (human, UniProt Q9NZC2 19-230).
T3 sequence: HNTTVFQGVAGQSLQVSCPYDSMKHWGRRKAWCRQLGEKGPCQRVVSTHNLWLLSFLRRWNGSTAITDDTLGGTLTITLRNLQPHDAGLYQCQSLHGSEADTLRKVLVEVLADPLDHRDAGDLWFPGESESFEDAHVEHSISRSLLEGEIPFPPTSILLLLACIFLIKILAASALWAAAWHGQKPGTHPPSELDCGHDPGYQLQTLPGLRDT
Briefly: cell-based or functional assay.

In experiment [4] the target is T1, cyTREM2 ECD (19-174)-APP-Avi. Put plainly: SET.
Experiment [5] deals with T4, TREM2 (isoform 3) on transfected HEK293 cells (human).
T4 construct: also called BC032362
T4 chain: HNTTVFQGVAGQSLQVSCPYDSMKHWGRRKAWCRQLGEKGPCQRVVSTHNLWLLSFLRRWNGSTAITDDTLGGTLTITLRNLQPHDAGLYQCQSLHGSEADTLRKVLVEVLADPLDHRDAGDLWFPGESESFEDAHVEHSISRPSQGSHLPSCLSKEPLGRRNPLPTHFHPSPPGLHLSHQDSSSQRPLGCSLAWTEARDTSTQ
Briefly: plasma membrane protein cell array, HEK293. How it is done:
Human HEK293 cells were grown on glass slides and fixed. Test antibodies were added at 2 µg/ml. Slides were subsequently incubated with an AlexaFluor647 labelled anti-human IgG Fc detection antibody, followed by fluorescence imaging.

Experiment [6] concerns the target T1, cyTREM2 ECD (19-174)-APP-Avi. Briefly: SPR (Biacore).

A value given as a limit tells only on which side of the number the result lay.

B1: MOR044698 (antibody, V domains shown)
VH: QVQLVQSGAEVKKPGASVKVSCKASGYTFTGYHMSWVRQAPGQGLEWMGVINPVSGNTVYAQKFQGRVTMTRDTSISTAYMELSRLRSEDTAVYYCARIPSYTYAFDYWGQGTLVTVSS
VL: DIQMTQSPSSLSASVGDRVTITCRASQDISNYLAWYQQKPGKAPKLLIYRASSLQSGVPSRFSGSGSGTDFTLTISSLQPEDFATYYCFQYRHMPSQTFGQGTKVEIKR
notes: also called MOR44698; MOR44698A
Consider B1, for which the Kd in experiment [1] and in experiment [4] was 0.039 nM each time. The S/BG in experiment [2] was over 20. Also, the “Internalization compared to parental after 6 h” value in experiment [3] turned out to be 1.5 fold. Further, the binding result in experiment [5] is “binds”.

B2: MOR042596 (antibody, human IgG1, kappa, L234A L235A, V domains shown)
VH: B1 VH
VL: DIQMTQSPSSLSASVGDRVTITCRASQDISNYLAWYQQKPGKAPKLLIYRASSLQSGVPSRFSGSGSGTDFTLTISSLQPEDFATYYCQQHGHSPTTFGQGTKVEIKR
notes: full IgG; also called MOR42596
In turn, B2 returned a Kd in experiment [6] of 6.6 nM.
